Consider 30 sequences from the nanobody polyreactivity screen of Harvey et al. (2022).

The data set is described as follows: yeast display, Sf9 membrane polyspecificity reagent, FACS + sequencing; frameworks hold sequencing errors. The method in brief:
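Polyreactivity labels are assigned by the sorting gate from which each nanobody was recovered. The gates were low and high (top ~1%), set on anti-HA fluorescence for expression and streptavidin fluorescence for reagent binding. Before sorting, galactose-induced (36–48 hours) yeast display cells were stained for 1 hour at 4 °C with 10% biotinylated, detergent-solubilized Sf9 membrane reagent.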
As for “QVHLVESGGGLVKAGGSLRLSCAASGRIFYTYAMGWYRQAPGKERELVAAISRSGGRTYYADSVKGRFTISRDNGKNTVYLQMNSLKPEDNAVYYCNAVENWLFSSHDYWGQGTQVTVSS”, the “polyreactivity (PSR sort gate)” value is on record as “low polyreactivity”.

Take “QVHLVESGGGLVKAGGSLRLSCSASGSIFTYNAMGWYRQAPGKERELVAAISSRGTSTYYSDSVKGRFTISRDNAKNTVYLQMNSLKPEDTAVYYCAAVWVSQRRPWGNTNNYWGQGTQVTVSS”: the “polyreactivity (PSR sort gate)” value is reported as “high polyreactivity”.

As for “QVHLVESGGGLVLAGGSLRLSCAASGSTFGINAMGWYRQAPGKEREFVASISWSTGTTYYADSVKGRFTISRDNAKNTVYLQMNSLKPEDTAVYSCAAVDYYWGYEQWYDYWGQGTQVTVSS”, the “polyreactivity (PSR sort gate)” value is given as “high polyreactivity”.

As to “QVHLVESGGGLVLAGGSLRLSCAASGSTLHLYAMGWYRQAPGKERELVADITSGGDTYYADSVKGRFTISRDNAKNTVYFQMNSLKPEDTAVYYCAAGPVYDWRGGALRYYYWGQGTQVSVSS”, the “polyreactivity (PSR sort gate)” value was “high polyreactivity”.

“QVHLVESGGGLVPAGGSLRLTCAASGSTLWFNAMRWYRQAPGKERELVAAISFYSGSTYYSDSVKGRFTISRDNANNTVYLQMNSLKPEDTAVYYCAARRRWWGYDYWGQATQVTVSS”: the “polyreactivity (PSR sort gate)” value was “high polyreactivity”.

Consider “QVHLVESGGGLVQAAGSLRLSCAASGFIFYYYAMGWYRQAPGKERELVAAISRSGGRTYYADSVKGRFTISRDNAKNTVYLQMNSLKPEDTAVYYCAAPGYQTVGMGYWGQGTQVTVSS”, for which the “polyreactivity (PSR sort gate)” value was “high polyreactivity”.

Take “QVHLVESGGGLVQAGASLRLSCAASGITFRFNAMGWYRQAPGKEREFVAAITYSGDSTYYADSVKGRFTISRDNAKNTVYLQMNSLKPEDTAVYYCAADYYAISRRMFYYWGQGTQVTVSS”: the “polyreactivity (PSR sort gate)” value is on record as “low polyreactivity”.

In the case of “QVHLVESGGGLVQAGGRLRLSCAASGFTFYKYAMGWYRQAPGKERELVAAITWSGGRTYYADSVKGRFTISRDNAKNTVYLQMNSLKPEDTAVYYCAADLHKLARYDYWGQGTQVTVSS”, the “polyreactivity (PSR sort gate)” value is reported as “high polyreactivity”.

As for “QVHLVESGGGLVQAGGSFRLSCAASGSIFDGYSMGWYRQAPGKERELVAAISYRVGRTYYADSVKGRFTISRDNAKNTVYLQMNSLKPEDTAVYYCAAGYYGNGVFEYDYWGQGTQVTVSS”, the “polyreactivity (PSR sort gate)” value is “low polyreactivity”.

“QVHLVESGGGLVQAGGSHRLSCAASGRIFRGYAMGWYIQAPGKERELVAAISGRGGRTYYADSVKGRFTISRDNAKNTVYLQMNSLKPEDTAVYYCNARRGRRGYYGNGDYWGQGTQVTVSS”: the “polyreactivity (PSR sort gate)” value was “high polyreactivity”.

Take “QVHLVESGGGLVQAGGSHRLSCAASGRTFDNYAMGWYRQAPGKERELVAAISRRGGSTYYADSVKGRFTISRDNAKNTVYLQMNSLKPEDTAVYYCAADRLVWKPTVVGFYYWGQGTQVTVSS”: the “polyreactivity (PSR sort gate)” value was “high polyreactivity”.

“QVHLVESGGGLVQAGGSIRLSCAASGRTLDPYTMGWYRQAPGKERELVAAITSSGGRTTYADSVKGRFTISRDNAKITVYLQMNSLKPEDTAVYYCAKKFRPVYRSQYLRYSWGQGTQVTVSS”: the “polyreactivity (PSR sort gate)” value is given as “low polyreactivity”.

“QVHLVESGGGLVQAGGSLCLSCAASGSIFINAMGWYRQAPGKERELVATIRWRGGTTYYADSVKGRFTISRDNAKNTVYLQMNSLKPEDTAVYYCAARVHSVHYPYYYWGQGTQVTVSS”: the “polyreactivity (PSR sort gate)” value is recorded as “low polyreactivity”.

For the sequence “QVHLVESGGGLVQAGGSLLLSCAASGIIFSYYAMGWYRQAPGKERELVAAISRSGVRPYYADSVKGRFTISRDNAKHTVYLQMYSLKPEDTAVYYCNAEFSPYPYDYWGQGTQVSVSS”, the “polyreactivity (PSR sort gate)” value was “high polyreactivity”.

On to “QVHLVESGGGLVQAGGSLRLICAASGRIYTFYAMGWYRQAPGKERHLVAAIRGSSVSTYYADSVKGRFTISRDNAKITVYLQMNSLKPEDTAVYYCAADIYLWNSEYYYWGQGTQVTVSS”, for which the “polyreactivity (PSR sort gate)” value is “low polyreactivity”.

With “QVHLVESGGGLVQAGGSLRLRCAASGSTFEYNAMGWYRPAPGKERELVASSTNYADSVKGRFTISRDNAKNTVSLQMNSLKPEDTAVYYCSREQGVNRNHDYWVQGTQVTVSS”, the “polyreactivity (PSR sort gate)” value is recorded as “low polyreactivity”.

As for “QVHLVESGGGLVQAGGSLRLRSPASGRTFDDNAMGWYRQAPGKESEMVAGITDNGGGTNYADSVKGRFTISRDNAKNTVYLQMSSLKPEDTAVYYCAADGKLVYVNGYNLYYWGQGTQVTVSS”, the “polyreactivity (PSR sort gate)” value was “low polyreactivity”.

Consider “QVHLVESGGGLVQAGGSLRLSCAASAFIFNRNAMGGYRQAHGKERELVAAISRSGGRTYYADSVKGRFTISRDHAKNTVYIQMNSLKPEDTAVYYCATEGYHGEFDYWGQGTQVTVSS”, for which the “polyreactivity (PSR sort gate)” value is reported as “high polyreactivity”.

For “QVHLVESGGGLVQAGGSLRLSCAASGFIFDPYGMGWYRQAPGKERELVAAISSRVGSTYYADSVKGRFTISRDNAKNTVYLQLNSLKPEDTAVYYCAADNDGVGYWVYEEMDYWGQGTQVTVSS”, the “polyreactivity (PSR sort gate)” value was “low polyreactivity”.

Turning to “QVHLVESGGGLVQAGGSLRLSCAASGFIFHSYAMGWYRQAPGKERELVASISRGGGSTYYADSVKGRFTISRDNAKNTVYLQMNSLKTEDTAVYYCNAVWRSNSRFDYWGQGTQVTVSS”, the “polyreactivity (PSR sort gate)” value is reported as “high polyreactivity”.

For the sequence “QVHLVESGGGLVQAGGSLRLSCAASGFIFRYYAMGWYRQAPGKEREMVAAISWSGGSTYYADSVKGRFTISRDNAKNTVYLQMNSLKPEDTAVYYCAADRYAILFYAEDYWGQGTQVTVSS”, the “polyreactivity (PSR sort gate)” value was “low polyreactivity”.

For the sequence “QVHLVESGGGLVQAGGSLRLSCAASGFIFTYYTMGWYRQAPGKERELVAAISRSGARTYYADSVKGRFTISRDNAKNTVYLQMNSLKPEDTAVYYCNTDISYGYYPVGYDYWGQGTQVTVSS”, the “polyreactivity (PSR sort gate)” value is “high polyreactivity”.

With “QVHLVESGGGLVQAGGSLRLSCAASGFIFYYYTMGWYRQAPGKEREFVAAITYSGGRTYYADSVKGRFTISRDNAKNSVYLQMNSLKPEDTSVYYCAAVPRYGPSYRMDYWGQGTQVTVSS”, the “polyreactivity (PSR sort gate)” value is “high polyreactivity”.

As for “QVHLVESGGGLVQAGGSLRLSCAASGFTFDAYAMGWYRQAPGKERELVAAITRRSGSTYYADSVKGRFTISRDNAKNTVYLQMNSLKPEDTAVYYCAAVSVHRLGSTFGYWGQGTQVTVSS”, the “polyreactivity (PSR sort gate)” value is on record as “high polyreactivity”.

On to “QVHLVESGGGLVQAGGSLRLSCAASGFTFKDYAMGWYRQAPGKHTELVAAISYSGGSTYYADSVKGRFTISRDNAKNTVYLQMYSLKPEDTAVYYCNKGYPYVAYDYWGQGTQVTVSS”, for which the “polyreactivity (PSR sort gate)” value is on record as “high polyreactivity”.

Consider “QVHLVESGGGLVQAGGSLRLSCAASGFTFRVYAMGWYRPAPGKERELVAAITKRGGSTYYADSVKGRFTISRDNAKNTVYLQMNSLKPEDTAGYYCATENTPHYASHGYWGQGTQVTVSS”, for which the “polyreactivity (PSR sort gate)” value is “high polyreactivity”.

“QVHLVESGGGLVQAGGSLRLSCAASGFTFSTYAMGVSRQAPGKEREWVAAISSGGTTNYADSEKGRFTISRDNAMNTVYLQMNCLKPEDTAVYYCATGYGRWTAYSTSYDYWGQGTQVTVSS”: the “polyreactivity (PSR sort gate)” value is recorded as “low polyreactivity”.

“QVHLVESGGGLVQAGGSLRLSCAASGFTFSYYAMGWYRQPPGKERELVAAITTSGGRTYYADSVKGRFPISRDNAKNTVYLQMNSLKPEDTAVYYCAATYPRYYSGEFDYWGQGTQVTVSS”: the “polyreactivity (PSR sort gate)” value is “high polyreactivity”.

Consider “QVHLVESGGGLVQAGGSLRLSCAASGFTFTLYAMGWYRQAPGKERELVAAIYFSGGNTYYADSVKGRFTISRDNAKNTVYLQMNSLKPEDTAVYYCAAEYYPSASYYYGWYTIFWLITRDDYYWGQGTQVTVSS”, for which the “polyreactivity (PSR sort gate)” value was “high polyreactivity”.

Turning to “QVHLVESGGGLVQAGGSLRLSCAASGFTFVSYAMGWYRQAPGKERELVDDINQSGGSTYYADSLKGRFTISRDNAKNTVYLQMNSQKPEDTAVYYCARDGDLWYYKGYGTLFDYWGQGTQVTVSS”, the “polyreactivity (PSR sort gate)” value is reported as “low polyreactivity”.
